From the domain aggregation screens of Martell et al. (2025)

Test: soluble fraction after stress (log2 fold change); higher = more stays soluble; pooled small domains, quantitative proteomics
Conditions: stress: pH 4
How it was run: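 Pooled custom libraries of small protein domains were subjected to pH 4 and measured by high-throughput quantitative proteomics. The log2 fold change in soluble amount per domain is reported, higher values meaning more remained soluble. This is used as a measure of aggregation propensity.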

Row | Sequence | soluble fraction (log2)
1 | HMAAPLTDRETEVLTLLARGLINKQIAEELHIGLTTVITHRRNIMEKLRVRSLAELILRAVAAGYVDAGR | -0.78
2 | HMNIVINVDTPTFEQMKATYQAPGTLPAGASFHAKLKGVTVTGYTKSHKVMFQGALANQEAARWQ | ≥ 0.43
3 | HMAKRKYKSFKDVAEFAQKLGIKSSTEWWAYVRGHEIPSDIPKDPSTYYKKEWTTWGDFLGTGYVSSA | ≥ 0.43
4 | HMPKAPHETLSRREMEVLLLLSEGVTLTRIGDTIHVSVKTVSTYRARILQKLDLQSNAELTRYVLQHKL | ≥ 0.43
5 | HMHMELHEKIRLARELNKWSQEEVAEKLEMSPSGYAKIERGETALNIPRLEQIAEIFNIDIWELVKA | -1.48
6 | HMVREVSYDQFLHFVEAKQVGMVYQDGESLMFTLKEDVEKEWGVTAYKTGLWPDANLTDRLLDAGVVFS | -1.65
7 | HMLPLHFIEIVSLKKIDTLTKRKELINYAFSKNEKTYIYKLAFKKKSELDNLYKEINLFNEIINIDIRHS | -0.943
8 | HMEIIFVEHKVRPGESVWLIARKYKVKKNHILAVNNLSEKSIIRPKQILKIPTSGYDQYKKSVE | -0.495
9 | HMSNEKVVKFAQELLVDEERSAISPALISAKIDQVLMFKPAWNEGLDRDAVVNELVRRFSIW | -1.19
10 | HMGMVDKSMYSRYDVGDLVKVLRGPLEGSEGHITEINTDTGTVKVETVFFGRSTVVEVDFSEIDK | -1.35
11 | HMRSGEDESFSAGLLEYPHYTRPAEFEGHRIPDILTSGDHAKVDAWRQEMSEHITRERRPDLWEMYKKK | 0.0228
12 | HMTRQEFIRKLQEALNGKLDAATIQDHLKFYDDYIIEEMRKGKSEQEVLELLGDPWAIAKTIVDAS | -0.44
13 | HMTIFGWQTDETGKWYRNADGTFFEAGWKEIDGAKYYFDENGYVKTGWLELDGKDYYFDEEGRYDSSKVR | -1.69
14 | HMIVSVPNVRGMGESKAAAALQNRGLLVSIDYESSTSASQGEVIRQSISPGTEVTKGSSITIIIAVSPN | -0.0228
15 | HMISVTNRTGTGLNDVKVEVFPVGRQMVFSATVFRVESEATNRFSLGELRGSDGTPFNQRVHRPESI | -0.07
16 | HMEAEGLDFAPMPGEIGKKLWQEVSKEAWAGWLKHQTMLVNENRLSFVDPAARKYLTEQTEAYFFG | -0.248
17 | HMTPPLSKIRNMTPDQQRSSVIEARKKGYNLLQLEGLAKAQGATPADLLVLRNAWAQSEFDQKR | 0.331
18 | HMNRTKQIYNELLFRLDQGVYPPESKFPSESQLADEFSVSKVTMNKIVSMLASSGRLSRGVRGAGTFVSSP | 0.319
19 | HMPFDWSAFDWKGWADEALAIIKTANQDQMNKWTEDNEKIIVQAETAAPDIYKTVGDEYDKKMESFN | 0.0448
20 | HMLTKSELVFDTLKKRIIDGELEPGTELVISRISEEFNVSTIPVREAIKTLASEGLVEMEPHKSAKVAE | -0.0422
21 | HMIMTIYEYIARNNPTGAKRVIESFGYVVTQPKKMGDNLRMLVAQEGEPALKAVVDLHPDKDLILEV | -1.93
22 | HMAENTIPSVIGKTLSDATFLLESYGYERGGVSEEYSEMPKGVVIRQSPQAGSSADPGTKVNLVVSLGEEI | -0.692
23 | HMSMDAVSLANRLLRFFQKRPGRKFTAADLAFETGMNERTGKSLVTSALEILSRTNQIEADGDGFRLKM | 0.243
24 | HMVPVVGTTIPHEFIGKFGSARVMLKPAVEGSGVIAGGSARAVLELAGYKDIKTKVLGTNNPRNVVYATMN | 0.196
25 | HMPRIYSITINPEKIRTVIGPGGKVIKDITAKTGTKIEIDDSGKVDIFSPDEEHARMAVEIINTLTEE | -0.221
26 | HMDVLSPEEWIEFRTAYNNNRYISQYGSKGATIEDDYATRLAMIGGKESYYFLNDPRWTEPGYGNLK | -1.45
27 | HMDETELLLQKAIATLPDKQRVVFNLKYFDEMKYEEMSELLETSVGALKASYHLAVKKIEQFFHDA | -0.241
28 | HMERFRQVNAGMTRDDIYQLLGKPTEKTPFPLKNEEVWSWRHQADGQTVALFNIHLDPDGRVTTTSQSMDL | -1.32
29 | HMEELTPLQKYVFDYESDISDEVDMRAIKGLENANDVYDYYANVRGWEGDPDLEDDLDNIYRQVKARFA | -1.2
30 | HMPSSIEGIEKYLGSGMIRGIGAVYAKRLVKQFGKDVFDIIEETPERLREVEGIGPIRAARIISGWADQ | -0.154
